From article PMC2064791 (The Journal of Cell Biology, 2007)

T1: GST-tagged Dhh1(46–461) (S. cerevisiae, UniProt P39517 46-461)
T1 sequence (looked up): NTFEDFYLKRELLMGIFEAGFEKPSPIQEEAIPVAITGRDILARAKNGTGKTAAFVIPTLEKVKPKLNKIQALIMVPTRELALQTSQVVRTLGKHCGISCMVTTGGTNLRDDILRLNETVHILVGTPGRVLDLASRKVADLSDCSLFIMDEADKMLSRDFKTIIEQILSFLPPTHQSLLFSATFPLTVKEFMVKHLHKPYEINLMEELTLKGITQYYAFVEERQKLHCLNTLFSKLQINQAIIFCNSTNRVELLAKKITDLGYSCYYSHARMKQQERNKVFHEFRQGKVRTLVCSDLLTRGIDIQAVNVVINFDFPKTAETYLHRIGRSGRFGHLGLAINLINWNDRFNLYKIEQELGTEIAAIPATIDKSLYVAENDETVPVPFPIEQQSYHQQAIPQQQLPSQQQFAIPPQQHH


Target: T1, GST-tagged Dhh1(46–461)
Assay: pull-down

| Binder | binding result |
| --- | --- |
| His-Dcp2(1–300)-Flag (domain or fragment, S. cerevisiae, UniProt P53550 1-300, looked up) MSLPLRHALENVTSVDRILEDLLVRFIINCPNEDLSSVERELFHFEEASWFYTDFIKLMNPTLPSLKIKSFAQLIIKLCPLVWKWDIRVDEALQQFSKYKKSIPVRGAAIFNENLSKILLVQGTESDSWSFPRGKISKDENDIDCCIREVKEEIGFDLTDYIDDNQFIERNIQGKNYKIFLISGVSEVFNFKPQVRNEIDKIEWFDFKKISKTMYKSNIKYYLINSMMRPLSMWLRHQRQIKNEDQLKSYAEEQLKLLLGITKEEQIDPGRELLNMLHTAVQANSNNNAVSNGQVPSSQE | binds |
| His-Dcp2(102–300)-Flag (domain or fragment, S. cerevisiae, UniProt P53550 102-300, looked up) SIPVRGAAIFNENLSKILLVQGTESDSWSFPRGKISKDENDIDCCIREVKEEIGFDLTDYIDDNQFIERNIQGKNYKIFLISGVSEVFNFKPQVRNEIDKIEWFDFKKISKTMYKSNIKYYLINSMMRPLSMWLRHQRQIKNEDQLKSYAEEQLKLLLGITKEEQIDPGRELLNMLHTAVQANSNNNAVSNGQVPSSQE | binds |
